Data taken from the supplement of paper PMC10724198.
± gives the standard deviation of the averaged measurements.

tested on: Saccharomyces cerevisiae; assay: protein stability index of tFT-peptide fusion (C-terminal peptide) (PSI (0-1 scale)); higher = more stable (slower turnover); details: genetic background: wild type; temperature: 30 C
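Note: PSI is a weighted mean of sequencing reads over stability bins, variants kept only with over 10 reads, mCherry proximal and sfGFP distal, peptide attached via GGGS linker.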

Sequence	protein stability index
EAQGVEMMGWAV	0.696 ± 0.025
PLAALPLALSLP	0.6575 ± 0.0055
NSPPPPRLRSSL	0.6937 ± 0.0018
VRSLFSFRLRGS	0.633 ± 0.056
SPPTPPTSICPS	0.705 ± 0.03
HDSRIDIASFHV	0.716 ± 0.024
LLNAGAMKGRLG	0.6782 ± 0.0038
KPVGLPGRIRLG	0.751 ± 0.02
SAERLKIVNDRI	0.753 ± 0.055
PSPPTSLPPTDA	0.706 ± 0.029
PLLHPPPRASLL	0.792 ± 0.13
GEAASEKKQEAG	0.644 ± 0.084
LSILVGDREGSV	0.753 ± 0.13
STSDAFLTFPLQ	0.678 ± 0.051
PSPSLYPPASPP	0.654 ± 0.046
VESSSMKGLLCD	0.66 ± 0.095
RRRGQDEGKQKR	0.7511 ± 0.0059
LLRFRSFPSAFF	0.723 ± 0.084
VGGFRVLCVGLG	0.613 ± 0.04
FRGALFLLSSRV	0.571
PPSPHPSASTRP	0.714 ± 0.04
SVEAGHVAERES	0.732 ± 0.061
ITGGEKNKEESG	0.698 ± 0.019
SLAFLPPSLSSS	0.713 ± 0.056
ELTPCGNNDHAI	0.644 ± 0.0087
PHVLAALTSYTP	0.68783 ± 0.00064

Sequence	protein stability index
SLRLHCSRQRRP	0.649 ± 0.048
RSRGARMPTTPT	0.684 ± 0.034
TPRLVFFLPLLP	0.658 ± 0.029
WSLGRRKLLHRI	0.666 ± 0.064
PFRSPFSSSPTF	0.7772 ± 0.0077
LDVFPVWSDANA	0.714 ± 0.031
NLKCRMSLKTLG	0.705 ± 0.0018
SRVLLPPQTLLL	0.573 ± 0.035
PPPLPSSPSPLL	0.679 ± 0.022
VPRGPRFHIILS	0.594 ± 0.035
PPPRPPSTTSPC	0.7037 ± 0.0047
NKNKDNNEIVKK	0.677 ± 0.068
AGSHPSRLGIFS	0.733 ± 0.033
YPDYTSATGNIR	0.666 ± 0.016
GGGSFVGLDFGG	0.6567 ± 0.0036
PPLPFAISPPPA	0.6624 ± 0.0017
GQWGGATLGLVG	0.777 ± 0.021
GLSIVCRHYEES	0.685 ± 0.022
PYLLGPIPGIPR	0.666 ± 0.059
GYATVILYPSID	0.653 ± 0.029
HHTQPLKSIKKN	0.708 ± 0.037
PPPFLPLCFPPL	0.691 ± 0.032
LLCRGLGSVGRR	0.63 ± 0.18
SSRSQTVRTFAL	0.689 ± 0.068
NEEVAKKKKIRV	0.667 ± 0.061
FNISVGPATRRV	0.665 ± 0.045

Sequence	protein stability index
GAGGSGRRIGCR	0.762 ± 0.052
IRSLKTSPLMRG	0.704 ± 0.043
RGAEACGGVPGQ	0.671 ± 0.024
GEGCPAGGHGCE	0.6864 ± 0.0063
YDMFCSYRFYPI	0.636 ± 0.07
CGGRPPADLRLS	0.69 ± 0.054
PSPLLPPPLPPS	0.678 ± 0.046
RATERIVNIKGK	0.63277 ± 0.00036
KFSFVVAVHAGL	0.545 ± 0.024
DSSDIELSTRTL	0.651 ± 0.027
PTAPPRLRLSFC	0.667 ± 0.0089
VYDCDVRHFGQC	0.761 ± 0.053
PRPLFVHTSSTF	0.7105 ± 0.0024
AITSPLGFGVLG	0.717 ± 0.015
VLAGVVGQARWW	0.731 ± 0.015
CRLRHPFPLSTR	0.644 ± 0.052
SPPPPSCRHSPL	0.741 ± 0.011
VKVWRTILRLLD	0.535 ± 0.0097
NKEPKRKHKNNK	0.675 ± 0.017
QDLDTALLLHAF	0.657 ± 0.018
WPLPRPEFCGAP	0.6316 ± 0.0011
PVHHLSLPSPLL	0.732 ± 0.037
LVLPASSPCLFF	0.647 ± 0.034
PFYTKSASPSSR	0.669 ± 0.02
LWVGVGRWLRGR	0.744 ± 0.014
GTKDRSNMIRKS	0.6702 ± 0.0044

Sequence	protein stability index
GFLGCGSGCGGG	0.777 ± 0.1
GARVGDRALASG	0.7089 ± 0.0069
DNWHRSFSTYPV	0.647 ± 0.099
KTGIQTEIRYKE	0.63727 ± 0.00029
LCGAVVEGGGEE	0.5743 ± 0.004
FFGWYFCFSGVS	0.598 ± 0.023
ERGALNRKDTRG	0.662 ± 0.023
GRCSRGVEGVSG	0.675 ± 0.034
CLCCTSFPPPFP	0.673 ± 0.057
GPHGNPGLAPLA	0.7282 ± 0.0021
SPLASVLPHAAL	0.707 ± 0.049
STGDWKLKFSKF	0.765 ± 0.066
GAEPTPYVAEAI	0.701 ± 0.026
CSLLFFFLLSFG	0.521 ± 0.021
VSRGRVKETGEE	0.713 ± 0.038
KIRKYTKGQIMQ	0.687 ± 0.007
SGAPAQLSLSSL	0.6568 ± 0.0032
GVRSGAGGQVVG	0.701 ± 0.038
RERRGPTDLKRH	0.712 ± 0.041
MLFLGPRLVVPA	0.565 ± 0.0097
LTGAQPTDPNMR	0.697 ± 0.071
RSTDKLLGLKKM	0.652 ± 0.073
HFLSCVGSLWFH	0.741 ± 0.0087
